Reference: patent US20250042961A1, “P53 PEPTIDOMIMETIC MACROCYCLES” (MERCK SHARP & DOHME LLC, priority 2021, published 2025)

Legend:
[1] = target: Purified MDM2 (1-125) protein (human MDM2 1-125 sequence comprising a modified TEV cleavage site, pNIC-GST fusion) (human) (UniProt Q00987); assay: competitive fluorescence anisotropy (FP) against FAM-labeled 12/1 peptide on MDM2 (1-125); apparent Kd
[2] = target: MDM2 (in HCT116 cells) (human) (UniProt Q00987); assay: cell-based or functional assay

Purified MDM2 (1-125) protein (human MDM2 1-125 sequence comprising a modified TEV cleavage site, pNIC-GST fusion) (human), sequence (Q00987 1-125 limits assumed): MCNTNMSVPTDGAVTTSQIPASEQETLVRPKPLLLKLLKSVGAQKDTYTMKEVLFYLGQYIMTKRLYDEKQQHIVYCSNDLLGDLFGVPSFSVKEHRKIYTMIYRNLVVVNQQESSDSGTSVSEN

Row | Substance | Kd [1] | p53 activity EC50 (µM) (0% FBS, 4 h) [2] | p53 activity EC50 (µM) (10% FBS, 16 h) [2]
1 | Acetyl-^DPMI-δ-(6-10 olefin staple) (D-K9D-Q, D-R12D-S)-NH2 (peptide) | 258 nM | – | –
2 | Acetyl-^DPMI-δ-(6-10 olefin staple) (D-K9D-Q, D-R12D-S, 3x(D-Ala)-(D-Glu)-2x(D-Ala) polypeptide tail)-NH2 | 0.43 nM | – | –
3 | ^DPMI-δ-(5-12 olefin staple)-NH2 (peptide) | 33.9 nM | 13.6 µM | 30.8 µM

The remaining substances from weak to strong by Kd [1], led by results:

Row | Kd [1] | p53 activity EC50 (µM) (0% FBS, 4 h) [2] | p53 activity EC50 (µM) (10% FBS, 16 h) [2] | Substance
4 | 118 nM | – | – | ^DPMI-δ-(6-10 olefin staple)-NH2 (peptide)
5 | 30 nM | – | – | Acetyl-^DPMI-δ-(6-10 olefin staple) (D-K9D-Q, D-R12D-S) (D-A)-(D-F)-(D-A)-(D-Ala)-(D-A)-(D-A) polypeptide tail)-NH2
6 | 3.1 nM | – | – | Acetyl-^DPMI-δ-(6-10 olefin staple) (D-K9D-Q, D-R12D-S, 3x(D-A) polypeptide tail)-NH2
